Source: patent publication US20100311184A1, “AZO HETEROCYCLIC DYES AND THEIR BIOLOGICAL CONJUGATES” (AAT BIOQUEST, INC., priority 2009, published 2010)
Where no end group is shown, it is not given here. Compound 12 = dye made from 2-amino-6-nitrobenzothiazole and 3-(1'-oxo-3'-carboxypropylamino)-N,N-dimethylaniline

Target: HIV-1 protease (Human immunodeficiency virus type 1 group M subtype B, UniProt P04585)
Test: Fluorogenic HIV protease assay with FRET peptides (FIG. 3)
Type: biochemical
Details: FRET peptide substrate, purified enzyme
Source text: Inhibition of HIV-1 protease represents an important avenue for AIDS therapy. Currently combination chemotherapy of reverse transcriptase inhibitors and protease inhibitors have shown to suppress the replication of HIV-1 and extend the life expectancy of HIV-1-infected individuals. The following FRET peptides of the instant disclosure are screened for developing a fluorogenic HIV protease assay. The enzyme assays are done with purified enzymes. Absorption spectra were taken with Hitachi U-3010. Endpoint fluorescence assays are run on either BMG NovoStar or Gemini SpectraMax (Molecular Devices). Enzyme kinetic assays are run on FlexStation (Molecular Devices). […] FRET Peptides #6 and #7 might be used for monitoring HIV protease activity in combination with a flow cytometer.
All the above FRET peptides are synthesized using the standard FMOC chemistry. Some of the TQ peptides were prepared using FMOC-Lys (Compound 12)-OH. For the post-labeling of the premade peptides, Dye NHS esters were used for labeling N-terminal amino or ε-amino group of lysine residue. Dye maleimides were used for labeling the SH group of cysteine residues.

Substance: Arg-Glu(5-TAMRA)-Val-Ser-Phe-Asn-Phe-Pro-Gln-Ile-Thr-Lys(Compound 12)-Arg ({Arg-Glu(5-TAMRA)}-VSFNFPQITK(Compound 12)R) [FRET peptide #2]
- response to HIV-1 protease: excellent response
